Test results taken from US20260116920A1 (PEPTIDREAM, published 2026).
Starred links: 1 amine or outer side, 2 acyl side, 3 side chain; linkers in the order of their positions; H or OH if unused. Positions of bridges follow the written chain, without caps; N, C: chain ends. Non-standard residues stand in square brackets, D forms with d. Primed or numbered codes have the meaning given here. No end group written: not given here. *: point of attachment. MePEG4c″ = K(MePEG4c) = (S)-20-amino-14-oxo-2,5,8,11-tetraoxa-15-azahenicosane-21-oic acid (Lys side chain acylated with methoxy-PEG4 acid), COCCOCCOCCOCCC(=O)*; E(PEG8Me) = (S)-30-amino-27-oxo-2,5,8,11,14,17,20,23-octaoxa-26-azahentriacontane-31-oic acid, COCCOCCOCCOCCOCCOCCOCCOCCNC(=O)CC[C@H](N[*:1])C(=O)[*:2]; F4aao = (S)-2-amino-3-(4-(carboxymethoxy)phenyl)propanoic acid, O=C([C@H](Cc1ccc(OCC(=O)[*:3])cc1)N[*:1])[*:2]; MePEG4c = K(MePEG4c) = (S)-20-amino-14-oxo-2,5,8,11-tetraoxa-15-azahenicosane-21-oic acid, COCCOCCOCCOCCC(=O)*; Phe(4-OMe)″ = (S)-2-amino-3-(4-methoxyphenyl)propanoic acid (F4OMe), COc1ccc(C[C@H](N[*:1])C(=O)[*:2])cc1; Phe(4-OMe) = F4OMe = (S)-2-amino-3-(4-methoxyphenyl)propanoic acid, COc1ccc(C[C@H](N[*:1])C(=O)[*:2])cc1; Trp(1-CH2CO) = O=C([C@H](Cc1cn(CC(=O)[*:3])c2ccccc12)N[*:1])[*:2]; Trp(5-Cl) = N[C@@H](Cc1c[nH]c2ccc(Cl)cc12)C(=O)O; Phe(3-COOH) = N[C@@H](Cc1cccc(C(=O)O)c1)C(=O)O; NMePhe(3-Cl) = CN[C@@H](Cc1cccc(Cl)c1)C(=O)O; NMePhe(4-F) = CN[C@@H](Cc1ccc(F)cc1)C(=O)O; 3Pal(6-NH2) = Nc1ccc(C[C@H](N)C(=O)O)cn1; NMeW = CN[C@@H](Cc1c[nH]c2ccccc12)C(=O)O; NMe3Pal = CN[C@@H](Cc1cccnc1)C(=O)O; NMe4Pal = CN[C@@H](Cc1ccncc1)C(=O)O; NMeY = CN[C@@H](Cc1ccc(O)cc1)C(=O)O; NMeR = CN[C@@H](CCCNC(=N)N)C(=O)O; NMeF = CN[C@@H](Cc1ccccc1)C(=O)O; 3Pal = N[C@@H](Cc1cccnc1)C(=O)O; 4Pal = N[C@@H](Cc1ccncc1)C(=O)O; NMeA = CN[C@@H](C)C(=O)O

B1: 894_0260 (peptide)
peptide: {CH2CO}-AV[NMePhe(4-F)]V[NMeW]NYYIIR[dR]FYC-NH2
modifications: thioether N-15; not fully specified (residue 14); also: linker PEG4c, place not given here
B2: 894_0306 (peptide)
peptide: {CH2CO}-AV[NMePhe(3-Cl)]V[Trp(1-CH2CO)]NY[3Pal]IIRR[4Pal][NMeY]C
modifications: thioether N-15; not fully specified (C-terminus)
B3: 894_0263 (peptide)
peptide: {CH2CO}-AV[NMeF]VWNYYIIK(MePEG4c)RFYC-NH2
modifications: thioether N-15; not fully specified (residue 14)
B4: 894_0312 (peptide)
peptide: {CH2CO}-AV[NMePhe(3-Cl)]VWNY[4Pal]IIRR[4Pal][NMeY]C-NH2
modifications: thioether N-15; also: linker PEG4c
B5: 894_0270 (peptide)
peptide: {CH2CO}-AV[NMePhe(4-F)]V[NMeW]NY[Phe(4-OMe)]IIK(MePEG4c″)[dR]FYC-NH2
modifications: thioether N-15; not fully specified (residue 14)
B6: 894_0298 (peptide)
peptide: {CH2CO}-AV[NMePhe(3-Cl)]V[Trp(1-CH2CO)]NY[F4aao]II[E(PEG8Me)]RF[NMeY]C
modifications: thioether N-15; not fully specified (C-terminus)
B7: 894_0282 (peptide)
peptide: {CH2CO}-AV[NMeF]VWNYYIIR[dR]FYC-NH2
modifications: thioether N-15; not fully specified (residue 14); also: linker PEG4c
B8: 894_0311 (peptide)
peptide: {CH2CO}-AV[NMePhe(3-Cl)]VWN[3Pal(6-NH2)][Phe(4-OMe)″]IIRR[4Pal][NMeY]C-NH2
modifications: thioether N-15; also: linker PEG4c
B9: 894_0307 (peptide)
peptide: {CH2CO}-AV[NMePhe(3-Cl)]V[Trp(1-CH2CO)]N[3Pal(6-NH2)][3Pal]IIRR[4Pal][NMeY]C
modifications: thioether N-15; not fully specified (C-terminus)
B10: 894_0267 (peptide)
peptide: {CH2CO}-AV[NMePhe(4-F)]V[Trp(5-Cl)]NYYII[NMeR]K(MePEG4c)FYC-NH2
modifications: thioether N-15; not fully specified (residue 14)
B11: 894_0309 (peptide)
peptide: {CH2CO}-AV[NMePhe(3-Cl)]VWNY[3Pal]IIRR[4Pal][NMeY]C
modifications: thioether N-15; not fully specified (C-terminus)
B12: 894_0301 (peptide)
peptide: {CH2CO}-AV[NMePhe(3-Cl)]V[Trp(1-CH2CO)]NY[F4aao]II[E(PEG8Me)]R[Phe(3-COOH)][NMeY]C
modifications: thioether N-15; not fully specified (C-terminus)
B13: 894_0282 (peptide)
peptide: {CH2CO}-AV[NMeF]VWNYYIIR[dR]FYC-NH2
modifications: thioether N-15; not fully specified (residue 14); also: linker PEG4c
B14: 894_0299 (peptide)
peptide: {CH2CO}-AV[NMePhe(3-Cl)]V[Trp(1-CH2CO)]NY[F4aao]IIR[E(PEG8Me)]F[NMeY]C
modifications: thioether N-15; not fully specified (C-terminus)
B15: 894_0313 (peptide)
peptide: {CH2CO}-AV[NMe3Pal]VWNY[Phe(4-OMe)″]IIRRF[NMeY]C-NH2
modifications: thioether N-15; also: linker PEG4c
B16: 894_0297 (peptide)
peptide: {CH2CO}-AV[NMeF]V[Trp(1-CH2CO)]NY[F4aao]IIRRYYC-NH2
modifications: thioether N-15; not fully specified (residue 14); also: linker PEG4c
B17: 894_0268 (peptide)
peptide: {CH2CO}-AV[NMePhe(4-F)]V[Trp(5-Cl)]NY[Phe(4-OMe)]II[NMeR]K(MePEG4c)FYC-NH2
modifications: thioether N-15; not fully specified (residue 14)
B18: 894_0308 (peptide)
peptide: {CH2CO}-AV[NMePhe(3-Cl)]V[Trp(1-CH2CO)]N[3Pal(6-NH2)][Phe(4-OMe)″]IIRR[4Pal][NMeY]C
modifications: thioether N-15; not fully specified (C-terminus)
B19: 894_0284 (peptide)
peptide: {CH2CO}-AV[NMeF]VWNYYII[NMeR]RFYC-NH2
modifications: thioether N-15; not fully specified (residue 14); also: linker PEG4c
B20: 894_0302 (peptide)
peptide: {CH2CO}-AV[NMePhe(3-Cl)]V[Trp(1-CH2CO)]NY[F4aao]IIQRF[NMeY]C
modifications: thioether N-15; not fully specified (C-terminus)
B21: 894_0310 (peptide)
peptide: {CH2CO}-AV[NMePhe(3-Cl)]VWN[3Pal(6-NH2)][3Pal]IIRR[4Pal][NMeY]C-NH2
modifications: thioether N-15; also: linker PEG4c
B22: 894_0315 (peptide)
peptide: {CH2CO}-AV[NMePhe(3-Cl)]VWN[3Pal(6-NH2)][Phe(4-OMe)″]IIRRF[NMeY]C-NH2
modifications: thioether N-15; also: linker PEG4c
B23: 894_0269 (peptide)
peptide: {CH2CO}-AV[NMePhe(4-F)]V[NMeW]NYYIIK(MePEG4c″)[dR]FYC-NH2
modifications: thioether N-15; not fully specified (residue 14)
B24: 894_0287 (peptide)
peptide: {CH2CO}-[NMeA]V[NMePhe(3-Cl)]V[NMeW]NY[Phe(4-OMe)]IIR[dA]FYC-NH2
modifications: thioether N-15; not fully specified (residue 14); also: linker PEG4c
B25: 894_0296 (peptide)
peptide: {CH2CO}-AV[NMeF]VWNY[F4aao]IIRRYYC-NH2
modifications: thioether N-15; not fully specified (residue 14); also: linker PEG4c
B26: 894_0284 (peptide)
peptide: {CH2CO}-AV[NMeF]VWNYYII[NMeR]RFYC-NH2
modifications: thioether N-15; not fully specified (residue 14); also: linker PEG4c
B27: 894_0264 (peptide)
peptide: {CH2CO}-AV[NMeF]VWNYYIIRK(MePEG4c)FYC-NH2
modifications: thioether N-15; not fully specified (residue 14)
B28: 894_0314 (peptide)
peptide: {CH2CO}-AV[NMe4Pal]VWNY[Phe(4-OMe)″]IIRRF[NMeY]C-NH2
modifications: thioether N-15; also: linker PEG4c
B29: 894_0303 (peptide)
peptide: {CH2CO}-AV[NMePhe(3-Cl)]V[Trp(1-CH2CO)]NY[F4aao]IIRQF[NMeY]C
modifications: thioether N-15; not fully specified (C-terminus)
B30: 894_0272 (peptide)
peptide: {CH2CO}-AV[NMePhe(4-F)]V[NMeW]NY[Phe(4-OMe)]II[NMeR]K(MePEG4c″)FYC-NH2
modifications: thioether N-15; not fully specified (residue 14)
B31: 894_0271 (peptide)
peptide: {CH2CO}-AV[NMePhe(4-F)]V[NMeW]NYYII[NMeR]K(MePEG4c″)FYC-NH2
modifications: thioether N-15; not fully specified (residue 14)

Biological target: T1, human transferrin receptor (hTfR) (human, UniProt P02786 89-760)
T1 construct: used as 0.5 uM hTfR dimer solution, immobilised on an NTA sensor chip (Ni capture plus EDC/NHS coupling); also called human TfR; TfR1
Test: SPR; B = KD 1-100 nM
Description: NTA sensor chip (Global Life Sciences Technologies Japan K.K.) was inserted into BiacoreT200 (Global Life Sciences Technologies Japan K.K.), then the priming operation was performed three times by using running buffer containing: 10 mM HEPES pH 8.0 (Nacalai Tesque, Inc.), 150 mM NaCl (Nacalai Tesque, Inc.), 0.05% Tween 20 (Nacalai Tesque, Inc.), 0.1% BSA (SIGMA-ALDRICH) and 1.0% DMSO (FUJIFILM Wako Pure Chemical Corporation), and equilibrated at a flow rate of 30 μL/min. 350 mM EDTA solution was reacted at a flow rate of 10 μL/min for 60 seconds, 0.5 mM […] solution (Kishida Chemical Co., Ltd.) was reacted at a flow rate of 10 μL/min for 60 seconds, and then the NTA sensor chip was washed with 3 mM EDTA solution (Nacalai Tesque, Inc.) at a flow rate of 10 μL/min for 60 seconds. After mixing 50 μL each of 60 mM EDC solution (Global Life Science Technologies Japan K.K.) and 650 mM NHS solution (Global Life Science Technologies Japan K.K.), the reaction was carried out at a flow rate of 10 μL/min for 420 seconds. 150 μL of 0.5 μM hTfR dimer solution was prepared by dilution with running buffer and reacted at a flow rate of 10 μL/min for 300 seconds to immobilize hTfR on the NTA sensor chip. For the human transferrin receptor (hTfR), recombinant hTfR described in Example 2 of WO2018/124121 was used. After immobilization, capping was performed by reacting with 1.0 M ethanolamine solution (Global Life Sciences Technologies Japan K.K.) at a flow rate of 10 μL/min for 420 seconds. Peptide lysate prepared in DMSO solution to 10 mM was diluted with running buffer to be a final concentration of 10 μM peptide lysate, then peptide solutions of 100 nM, 50 nM, 25 nM, 10 nM, and 5 nM were prepared. Using the above samples, the kinetics of the peptide against hTfR was obtained by SPR measurement.
The kinetic evaluation model was single-cycle kinetics, and curve fitting was performed using Biacore T200 Evaluation Software Version 3.0 (Global Life Science Technologies Japan K.K.). The binding of the peptide to hTfR was evaluated by performing curve fitting on the obtained sensorgram by least squares method and obtaining the KD value.

T1 sequence (P02786 89-760 limits assumed): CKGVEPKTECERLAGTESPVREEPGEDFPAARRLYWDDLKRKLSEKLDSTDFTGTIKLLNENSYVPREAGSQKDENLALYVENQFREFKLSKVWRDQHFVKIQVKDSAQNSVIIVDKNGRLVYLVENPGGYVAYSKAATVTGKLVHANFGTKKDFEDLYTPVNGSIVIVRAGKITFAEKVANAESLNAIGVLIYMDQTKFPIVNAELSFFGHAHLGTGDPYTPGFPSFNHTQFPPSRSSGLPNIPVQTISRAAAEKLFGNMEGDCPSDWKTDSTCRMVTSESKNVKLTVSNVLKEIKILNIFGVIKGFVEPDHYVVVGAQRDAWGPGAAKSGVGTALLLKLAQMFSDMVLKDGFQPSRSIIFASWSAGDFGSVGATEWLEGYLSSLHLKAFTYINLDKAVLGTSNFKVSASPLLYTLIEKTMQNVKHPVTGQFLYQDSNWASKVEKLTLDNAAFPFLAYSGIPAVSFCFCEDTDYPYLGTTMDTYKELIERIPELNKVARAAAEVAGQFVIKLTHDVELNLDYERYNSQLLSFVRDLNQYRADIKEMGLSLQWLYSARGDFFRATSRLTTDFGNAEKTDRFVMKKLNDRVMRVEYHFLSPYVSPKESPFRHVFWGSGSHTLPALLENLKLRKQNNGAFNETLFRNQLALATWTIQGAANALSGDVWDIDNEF

| Binder | KD |
| --- | --- |
| B1 | 1 to 100 nM |
| B2 | 1 to 100 nM |
| B3 | 1 to 100 nM |
| B4 | 1 to 100 nM |
| B5 | 1 to 100 nM |
| B6 | 1 to 100 nM |
| B7 | 1 to 100 nM |
| B8 | 1 to 100 nM |
| B9 | 1 to 100 nM |
| B10 | 1 to 100 nM |
| B11 | 1 to 100 nM |
| B12 | 1 to 100 nM |
| B13 | 1 to 100 nM |
| B14 | 1 to 100 nM |
| B15 | 1 to 100 nM |
| B16 | 1 to 100 nM |

| Binder | KD |
| --- | --- |
| B17 | 1 to 100 nM |
| B18 | 1 to 100 nM |
| B19 | 1 to 100 nM |
| B20 | 1 to 100 nM |
| B21 | 1 to 100 nM |
| B22 | 1 to 100 nM |
| B23 | 1 to 100 nM |
| B24 | 1 to 100 nM |
| B25 | 1 to 100 nM |
| B26 | 1 to 100 nM |
| B27 | 1 to 100 nM |
| B28 | 1 to 100 nM |
| B29 | 1 to 100 nM |
| B30 | 1 to 100 nM |
| B31 | 1 to 100 nM |
